Assay results as given in patent publication US20250355001A1, “METHOD FOR DETECTING A TAU PROTEIN FRAGMENT IN A SAMPLE” (GTINVENT LIMITED, priority 2022, published 2025).
Where “and” joins values, the source holds several entries; their conditions need not be identical. Identical values can stand only once.

Experiments:
[1] = tested on: hT40, dGA, dGAE and truncated tau fragments; assay: Binding ELISA / epitope mapping of anti-tau scAbs with truncated tau proteins and 13mer peptides; parameters: species or system human
How it was run: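 Serially double-diluted scAbs were applied to 2% MPBS-blocked wells carrying either 1 μg/ml full-length or truncated tau, or biotinylated 13mer peptides (1 μg/ml) captured on 5 μg/ml streptavidin. Absorbance after HRP anti-human C kappa secondary gave the binding signal.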

[2] = target: T1, hT40 (T441, SEQ ID NO: 1) (Homo sapiens, UniProt P10636); assay: Biacore X100 SPR kinetics of scAbs for hT40; type: binding; details: Table 23; scAb captured, T441 (hT40) analyte; 1:1 model
T1 construct: Full length tau (hT40)
T1 sequence (P10636 1-441 isoform P10636-8): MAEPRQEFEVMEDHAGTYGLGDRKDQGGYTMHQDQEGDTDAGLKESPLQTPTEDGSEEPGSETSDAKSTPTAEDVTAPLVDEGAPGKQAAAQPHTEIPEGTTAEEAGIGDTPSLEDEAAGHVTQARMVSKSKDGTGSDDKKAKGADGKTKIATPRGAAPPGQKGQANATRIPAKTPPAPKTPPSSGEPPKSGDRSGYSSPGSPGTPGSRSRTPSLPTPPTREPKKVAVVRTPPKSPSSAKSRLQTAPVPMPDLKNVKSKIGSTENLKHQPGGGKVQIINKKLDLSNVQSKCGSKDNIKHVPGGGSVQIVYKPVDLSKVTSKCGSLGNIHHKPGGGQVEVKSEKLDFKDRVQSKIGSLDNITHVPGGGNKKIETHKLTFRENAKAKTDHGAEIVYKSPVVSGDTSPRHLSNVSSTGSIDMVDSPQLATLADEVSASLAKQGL
How it was run: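 Captured scAb on anti-HuCk CM5 surface (flow cell 1 as reference) in HBS-EP+, capture set for theoretical RMax 100 RU; hT40 injected multi-cycle (0.15625–100 nM) or single-cycle (6.25–100 nM), 120 s association, 420 s dissociation, glycine pH 2.0 regeneration. Kinetics and affinity from 1:1 binding model fit.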

[3] = tested on: tau fragments in plasma of WT, L1 and L66 mice; assay: Capture ELISA on transgenic mouse plasma; details: Line66 transgenic model
Protocol: Plasma samples from WT, L1, L66+/− and L66+/+ of various ages (1.5-9 months) were taken as described. Mice were terminally anaesthetized using an overdose of sodium pentobarbital and blood was collected through cardiac puncture through a Plastipak syringe pre-rinsed with heparinised saline heparin (10 U/ml) (Heparin sodium salt; Sigma-Aldrich) and transferred into a plastic vial containing lithium heparin anticoagulant (Sarstedt Ltd.) Blood samples, kept on ice for no more than 30 minutes, were centrifuged to obtain plasma at 2000× g for 5 minutes at 6° C. Plasma samples were stored at −20° C.
For mouse plasma capture ELISA, 100 μL capture mAb was coated to the bottom of a black nunc 96 well ‘maxisorp’ plate at 2.5 μg/ml and incubated for 1 hour at 37° C. After washing and blocking as normal, several known standard solutions were set up in triplicate starting at 20 ng/ml of the desired protein before double diluted in the remaining wells. Mouse samples were added to wells in duplicate with a blank in between each sample group. Line1 plasma was diluted 1:10 before addition to plate to account for its high concentration while other samples were diluted 1:2 to account for potential matrix effects. […] The ELISA was developed using SuperSignal ELISA Femto Substrate (Thermo Scientific) and total luminescence was read on Clariostar Plus plate reader (BMG Labtech). […]

[4] = target: T2, htau40 (Homo sapiens, UniProt P10636); assay: Biacore X100 SPR kinetics of anti-tau mAbs on immobilised htau40; type: binding; details: Table 27; mAb format, immobilised htau40
T2 construct: Full length tau (hT40)
T2 sequence (P10636 1-441 isoform P10636-8): as above
How it was run: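 Htau40 amine-coupled to CM5 chip (~250 RU, pH 4.0 immobilisation), reference flow cell subtracted; mAb injected at 0.78–25 nM in HBS-EP+, 120 s association, 600 s dissociation, glycine pH 1.5 regeneration. Kinetic and affinity constants from 1:1 binding model fit.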

[5] = target: aggregated dGAE (Homo sapiens, UniProt P10636); assay: Capture ELISA ranking mAbs for capture of dGAE aggregates; type: binding; details: capture mAb 1 μg/ml; 800 nM aggregated dGAE
aggregated dGAE, sequence (P10636 614-708): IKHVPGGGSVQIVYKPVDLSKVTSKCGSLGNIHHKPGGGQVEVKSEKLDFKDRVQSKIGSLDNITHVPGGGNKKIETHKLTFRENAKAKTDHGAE
Protocol: The aggregation cascade of natively unfolded tau into insoluble filaments is a defining pathological feature of AD. Therefore, it is logical to target aggregated tau filaments for both therapeutic and diagnostic purposes. The following experiment was performed to assess the ability of our dGA mAb panel to bind aggregated dGAE using a capture ELISA method. Aggregates were prepared by incubating 100 μM dGAE and 10 mM dTT for 24 h at 37° C. with shaking at 700 RPM. The following day, dGAE aggregates were centrifuged at 17,000×g for 20 min and the supernatant was removed. The remaining pellet was washed with 10 mM phosphate buffer and centrifuged as above. Washing was repeated a further two times to remove any remaining dGAE monomer. The dGAE pellet was resuspended in 100 μl of 10 mM phosphate buffer. (Using a separate capture ELISA based quantification, we have worked out the efficiency of our dGAE aggregation as 80%)
Following washing, 800 nM aggregated dGAE was added to the designated wells, double diluted across the plate and incubated for 1 h at RT. The plate was washed again and 1 μg/ml S1G2 scAb was added as detection antibody and incubated for 1 h at RT. To the row where S1G2 mAb was used for capture, […] s1D12 scAb was added as […] instead of S1G2. The assay was developed using HRP labelled HuCK as described previously.

B1: CB7: human-specific N-terminal anti-tau clone, Table 10; SEQ ID NO: 364 (protein)
scFv: QVQLQESGPSLVKPSQTLSLTCTVSGFSLTNYRVGWVRQAPGKALEWVSNIRSGGTTWYNPALKSRLSITADTSKSQVSLSLSSVTTEDTAVYYCARDSSGDLYAYDYWGPGLLVTVSSEGKSSGASGESKVDDQAVLTQPSSVSRSLGQSVSMTCSGSSSNVGYGNYMAWFQQVPGSAPKLLIYGATSRASGVPDRFSGSRSGNTATLTISSLQAEDEADYYCASYDSTSGGVFGSGTRLTVLG
modifications: CB7 amino acid sequence
[1]; Table 17, 'C' group scAbs, binding ELISA
  Tau proteins/fragments with positive scAb reactivity: hT40, 1-49, 1-155, 1-319
[1]; Table 17, 'C' group scAbs, incl. 13mer peptides
  Shortest region bound on hT40: 13-25
[1]; Table 26 summary, top scAbs, residues of hT40
  Epitope: 13-25
[1]; Table 28 (LoD table), residues of hT40
  Detection scAb (Epitope): CB7 (13-25)
[1]; amino acid residues of hT40
  binding region on hT40: 13-25 and 13-26
[1]; residue numbers of SEQ ID NO: 1 (hT40), CDR Tables 1-11
  Epitope: 13-25
[1]; second Table 26, own antibodies
  Binding region hT40: (Binding region hT40 13-25)
[2]
  ka: 133400 M⁻¹ s⁻¹
  kd: 0.0006936 s⁻¹
[3]
  cross reaction with endogenous mouse tau: does not cross react with endogenous mouse tau protein
[4]
  ka: 2.568e+06 M⁻¹ s⁻¹
  kd: 0.009451 s⁻¹

B2: E2E8 mAb: E2E8 reformatted; heavy chain SEQ ID NO: 493, light chain 494 (antibody)
heavy: QVQLQESGPSLVKPSQTLSLTCTVSGFSLTDRGVAWVRQAPGKALEWVGTMRSGGTIDYNPALKSRLSITRDTSKSQVFLSLSSVTTEDMAMYYCARGYLSGDRYAWGRGLLVTVSSAKTTAPSVYPLAPVCGDTTGSSVTLGCLVKGYFPEPVTLTWNSGSLSSGVHTFPAVLQSDLYTLSSSVTVTSSTWPSQSITCNVAHPASSTKVDKKIEPRGPTIKPCPPCKCPAPNLLGGPSVFIFPPKIKDVLMISLSPIVTCVVVDVSEDDPDVQISWFVNNVEVHTAQTQTHREDYNSTLRVVSALPIQHQDWMSGKEFKCKVNNKDLPAPIERTISKPKGSVRAPQVYVLPPPEEEMTKKQVTLTCMVTDFMPEDIYVEWTNNGKTELNYKNTEPVLDSDGSYFMYSKLRVEKKNWVERNSYSCSVVHEGLHNHHTTKSFSRTPGK
light: QAVLTQPSSVSKSLGQSVSIACSGSRSDIGYGNYVSWFQQIPGSAPKLLIYDTNTRASGVPDRFSGARSGNTATLTINSLQAEDEADYYCANIDSSRSHLFGSGTRLTVLGGQPKSSPSVTLFPPSSEELETNKATLVCTITDFYPGVVTVDWKVDGTPVTQGMETTQPSKQSNNKYMASSYLTLTARAWERHSSYSCQVTHEGHTVEKSLSRADCS
modifications: E2E8 mAB Heavy Chain; E2E8 mAB Light Chain
[5]
  ability to capture dGAE aggregates: most efficient at capturing aggregated dGAE
